The target in test [1] is recombinant nucleoprotein (NP) protein derived from influenza virus H1N1 to which a Flag tag was fus (influenza virus H1N1).
The target of test [2] is intranuclear protein derived from type-A influenza virus subtype H1N1 (A/Hokkaido/6-5/2014) (type-A influenza virus H1N1 …).

Sequence of recombinant nucleoprotein (NP) protein derived from influenza virus H1N1 to which a Flag tag was fus (influenza virus H1N1) (P03466 whole entry): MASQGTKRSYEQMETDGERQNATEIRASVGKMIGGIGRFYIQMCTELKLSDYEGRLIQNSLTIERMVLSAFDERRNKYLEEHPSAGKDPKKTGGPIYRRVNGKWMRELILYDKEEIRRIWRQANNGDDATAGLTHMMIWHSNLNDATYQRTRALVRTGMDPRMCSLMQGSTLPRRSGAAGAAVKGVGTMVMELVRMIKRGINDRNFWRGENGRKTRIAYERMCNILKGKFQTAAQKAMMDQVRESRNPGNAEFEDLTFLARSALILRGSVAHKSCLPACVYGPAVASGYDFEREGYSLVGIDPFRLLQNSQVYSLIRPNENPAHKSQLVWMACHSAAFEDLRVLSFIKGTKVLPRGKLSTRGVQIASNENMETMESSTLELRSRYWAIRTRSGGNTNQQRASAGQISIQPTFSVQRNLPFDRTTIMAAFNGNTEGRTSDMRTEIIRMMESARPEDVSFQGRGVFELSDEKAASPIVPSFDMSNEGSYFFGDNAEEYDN

B1: VHH antibody consisting of the amino acid sequence represented by SEQ ID NO: 8 (VHH)
VHH: EVQLVESGGGLVQPGGSLSLSCAASGFTFSNYYMGWFRQAPGKERQSLATVNSGGTGEAYADSIRGRFTISRDNAKNTVTLQMSSLQPEDTAVYYCARVDGRVLSTIVVSYDYWGQGTQVTVSS
For orientation: Kd means the constant that tells how readily two partners part at equilibrium. Broadly, the EC50 (read off the curve) is the concentration giving half of the maximal effect. On to B1, for which, in test [1], the Kd was 0.201 nM. Moreover, the half-maximal effective concentration (EC50 (read off the curve)) in test [2] was roughly 8 ng/mL.

The record behind these values is US20200291098A1 (PANASONIC INTELLECTUAL PROPERTY MANAGEMENT, published 2020).
